Experimental data published in patent US20260265403A1 (TJ BIOPHARMA SHANGHAI, published 2026).

What was measured:
human CD24 on cells = biological target: T1, human CD24 on cells (human, UniProt P25063 27-59); test: cell-based or functional assay
T1 chain (looked up): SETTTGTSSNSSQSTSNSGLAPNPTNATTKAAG

Human CD24 = biological target: T2, Human CD24 (human, UniProt P25063 27-59, limits assumed); test: SPR affinity ranking, 1:1 binding, analyte conc. 19.71 nM
T2 chain (looked up): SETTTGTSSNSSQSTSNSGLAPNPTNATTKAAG

Row | Binder | EC50 of Phagocytosis assay, IgG1, Kappa; HEK293-CD24 (human CD24 on cells) [µg/mL] | EC50 of Phagocytosis assay, IgG1, Kappa; MCF-7 (human CD24 on cells) [µg/mL] | EC50 of Phagocytosis assay, IgG1, Kappa; NALM6 (human CD24 on cells) [µg/mL] | EC50 of Phagocytosis assay, IgG1, Kappa; OVCAR3 (human CD24 on cells) [µg/mL] | other results
1 | 66-D1B10, IgG1, Kappa (antibody, V domains shown) VH: EVRLEESGGGFVQPGGSMKLSCVASGLTFPNHWMNWVRQSPERGLAWVAQIQLKSDNYATRYVESVKGRFTISRDDSESTVYLQMNNLRAEDTGIYYCTTGTDYWGQGTTLTVSS VL: not shown | 7.46 | 0.84 | 2.48 | 0.73 | –
2 | 76-F8C6, IgG1, Kappa (antibody, V domains shown) VH: EVKLEESGGGLVQPGGSMKLSCVASGFTFTNSWMNWVRQSPERGLDWVAQIQLKSDNYATRYVESVKGRFTISRDDSKNSVYLQMNNLRAEDTGIYYCTTGTDYWSQGTTLTVSS VL: not shown | 0.09 | 0.47 | 0.42 | 0.17 | –
3 | 65-F3C7, IgG4, Kappa (antibody, V domains shown) VH: EVRLEESGGGFVQPGGSMKLSCVASGLTFPNHWMNWVRQSLERGLAWVAQIQLKSDNYATRYVESVKGRFTISRDDSKSTVYLQMNNLRPEDTGIYYCTTGTDYWGQGTTLTVSS VL: not shown | – | – | – | – | EC50 of Phagocytosis assay, IgG4, Kappa; HEK293-CD24 (human CD24 on cells): 0.09 µg/mL; EC50 of Phagocytosis assay, IgG4, Kappa; MCF-7 (human CD24 on cells): 2.25 µg/mL; EC50 of Phagocytosis assay, IgG4, Kappa; NALM6 (human CD24 on cells): 6.01 µg/mL; EC50 of Phagocytosis assay, IgG4, Kappa; OVCAR3 (human CD24 on cells): 5.74 µg/mL
4 | 65-F3C7, IgG1, Kappa (antibody, V domains shown) VH: EVRLEESGGGFVQPGGSMKLSCVASGLTFPNHWMNWVRQSLERGLAWVAQIQLKSDNYATRYVESVKGRFTISRDDSKSTVYLQMNNLRPEDTGIYYCTTGTDYWGQGTTLTVSS VL: not shown | 0.75 | 0.4 | 2.01 | 0.23 | –
5 | 74-H4C6 (4451), IgG1, Kappa (antibody, V domains shown) VH: EVQLQQSGPELVKPGASVKISCKASGYDFTGYHMNWVKQSPEKSLEWIGEINPITSDKTFNQKFKSKATLTVDRSSSTAYMYLKSLTSEDSAVYYCARRDYGTSLDYWGQGTTLTVSS VL: DVQITQSPSYLAASPGETITIYCRASKSISKYLAWYQEKPEKTNRLLIYAGSTLHSGIPSRFRGSGSGKDFTLTVSGLEPEDFAMYYCQQHNEYPITFGAGTKLELK | 0.05 | 0.28 | 0.19 | 0.1 | –
6 | 80-F10A6, IgG4, Kappa (antibody, V domains shown) VH: EVQLQQSGPVLVNPGASVKISCKASGYSFTGYYMNWVKQSPEKSLEWIGEVNPITGDTTYSQNFKAKTTLTVDRSSSTAYMQLKSLTSEDSAVYYCTRRDYGTSLDYWGQGTTLTVSS VL: DVQITQSPSYLAASPGETITIHCRASKSISRYLAWYQEKPGKINTLLIYAGSTLHLGIPSRFSGSGSGTDFTLTISSLELEDFAMYYCQQHNEYPITFGAGTKLELK | – | – | – | – | EC50 of Phagocytosis assay, IgG4, Kappa; HEK293-CD24 (human CD24 on cells): 0.86 µg/mL; EC50 of Phagocytosis assay, IgG4, Kappa; MCF-7 (human CD24 on cells): 2.4 µg/mL; EC50 of Phagocytosis assay, IgG4, Kappa; NALM6 (human CD24 on cells): 1.05 µg/mL; EC50 of Phagocytosis assay, IgG4, Kappa; OVCAR3 (human CD24 on cells): 0.37 µg/mL
7 | 70-F4E5, IgG1, Kappa (antibody, V domains shown) VH: EVNLEESGGGLVQPGGSRQLSCVASGLTFSKHWMNWVRQSPDKGLEWVAQIQLKSDNYAIRYVDSVKGRFTISRDDSENTVYLQMNNLRAEDTGIYYCTTGTDYWGQGTTLTVSS VL: not shown | 0.04 | 0.7 | 0.61 | 0.15 | –
8 | 70-F4E5, IgG4, Kappa (antibody, V domains shown) VH: EVNLEESGGGLVQPGGSRQLSCVASGLTFSKHWMNWVRQSPDKGLEWVAQIQLKSDNYAIRYVDSVKGRFTISRDDSENTVYLQMNNLRAEDTGIYYCTTGTDYWGQGTTLTVSS VL: not shown | – | – | – | – | EC50 of Phagocytosis assay, IgG4, Kappa; HEK293-CD24 (human CD24 on cells): 0.21 µg/mL; EC50 of Phagocytosis assay, IgG4, Kappa; MCF-7 (human CD24 on cells): 0.84 µg/mL; EC50 of Phagocytosis assay, IgG4, Kappa; NALM6 (human CD24 on cells): 0.63 µg/mL; EC50 of Phagocytosis assay, IgG4, Kappa; OVCAR3 (human CD24 on cells): 5.61 µg/mL
9 | 63-C5A5, IgG4, Kappa (antibody, V domains shown) VH: EVNLEESGGGLVQPGGSMEFSCVASGLTFSDHWMNWVRQSPEKGLEWVAQIQLKSDNYAIRYVESVKGRFSISRDDSKSSVYLQMNNLRAEDSGIYYCTTGTDYWGQGTTLTVSS VL: not shown | – | – | – | – | EC50 of Phagocytosis assay, IgG4, Kappa; HEK293-CD24 (human CD24 on cells): 0.46 µg/mL; EC50 of Phagocytosis assay, IgG4, Kappa; MCF-7 (human CD24 on cells): 24.7 µg/mL; EC50 of Phagocytosis assay, IgG4, Kappa; NALM6 (human CD24 on cells): 6.58 µg/mL; EC50 of Phagocytosis assay, IgG4, Kappa; OVCAR3 (human CD24 on cells): 1.62 µg/mL
10 | 63-C5A5, IgG1, Kappa (antibody, V domains shown) VH: EVNLEESGGGLVQPGGSMEFSCVASGLTFSDHWMNWVRQSPEKGLEWVAQIQLKSDNYAIRYVESVKGRFSISRDDSKSSVYLQMNNLRAEDSGIYYCTTGTDYWGQGTTLTVSS VL: not shown | 0.4 | 0.74 | 0.7 | 8.48 | –
11 | Antibody No 1, lead clone of 4451H (HC N35G; LC K27A, T97I) (antibody, V domains shown) VH: QVQLVQSGAEVKKPGASVKVSCKASGYDFTGYHMGWVRQAPGQGLEWMGEINPITSDKTFNQKFKSRVTMTRDTSISTAYMELSRLRSDDTAVYYCARRDYGTSLDYWGQGTTVTVSS VL: DIQLTQSPSFLSASVGDRVTITCRASASISKYLAWYQQKPGKAPKLLIYAGSTLHSGIPSRFRGSGSGTEFTLTISSLQPEDFATYYCQQHNEYPIIFGQGTKLEIK | – | – | – | – | Kd (Human CD24): 10.5 nM; koff (Human CD24): 0.0132 s⁻¹; kon (Human CD24): 1.26e+06 M⁻¹ s⁻¹
12 | Antibody No 4, lead clone of 4451H (HC N35G; LC K27A) (antibody, V domains shown) VH: QVQLVQSGAEVKKPGASVKVSCKASGYDFTGYHMGWVRQAPGQGLEWMGEINPITSDKTFNQKFKSRVTMTRDTSISTAYMELSRLRSDDTAVYYCARRDYGTSLDYWGQGTTVTVSS VL: DIQLTQSPSFLSASVGDRVTITCRASASISKYLAWYQQKPGKAPKLLIYAGSTLHSGIPSRFRGSGSGTEFTLTISSLQPEDFATYYCQQHNEYPITFGQGTKLEIK | – | – | – | – | Kd (Human CD24): 8.97 nM; koff (Human CD24): 0.0107 s⁻¹; kon (Human CD24): 1.19e+06 M⁻¹ s⁻¹
13 | Antibody No 2, lead clone of 4451H (HC N35G; LC S30K, T97I) (antibody, V domains shown) VH: QVQLVQSGAEVKKPGASVKVSCKASGYDFTGYHMGWVRQAPGQGLEWMGEINPITSDKTFNQKFKSRVTMTRDTSISTAYMELSRLRSDDTAVYYCARRDYGTSLDYWGQGTTVTVSS VL: DIQLTQSPSFLSASVGDRVTITCRASKSIKKYLAWYQQKPGKAPKLLIYAGSTLHSGIPSRFRGSGSGTEFTLTISSLQPEDFATYYCQQHNEYPIIFGQGTKLEIK | – | – | – | – | Kd (Human CD24): 8.78 nM; koff (Human CD24): 0.0249 s⁻¹; kon (Human CD24): 2.83e+06 M⁻¹ s⁻¹
14 | Antibody No 5, lead clone of 4451H (HC N35G; LC S30K) (antibody, V domains shown) VH: QVQLVQSGAEVKKPGASVKVSCKASGYDFTGYHMGWVRQAPGQGLEWMGEINPITSDKTFNQKFKSRVTMTRDTSISTAYMELSRLRSDDTAVYYCARRDYGTSLDYWGQGTTVTVSS VL: DIQLTQSPSFLSASVGDRVTITCRASKSIKKYLAWYQQKPGKAPKLLIYAGSTLHSGIPSRFRGSGSGTEFTLTISSLQPEDFATYYCQQHNEYPITFGQGTKLEIK | – | – | – | – | Kd (Human CD24): 7.89 nM; koff (Human CD24): 0.0345 s⁻¹; kon (Human CD24): 4.37e+06 M⁻¹ s⁻¹
15 | Antibody No 7, lead clone of 4451H (HC N35G; LC T97I) (antibody, V domains shown) VH: QVQLVQSGAEVKKPGASVKVSCKASGYDFTGYHMGWVRQAPGQGLEWMGEINPITSDKTFNQKFKSRVTMTRDTSISTAYMELSRLRSDDTAVYYCARRDYGTSLDYWGQGTTVTVSS VL: DIQLTQSPSFLSASVGDRVTITCRASKSISKYLAWYQQKPGKAPKLLIYAGSTLHSGIPSRFRGSGSGTEFTLTISSLQPEDFATYYCQQHNEYPIIFGQGTKLEIK | – | – | – | – | Kd (Human CD24): 16.9 nM; koff (Human CD24): 0.0141 s⁻¹; kon (Human CD24): 836000 M⁻¹ s⁻¹
16 | 45-H1E4, IgG1, Kappa (antibody, V domains shown) VH: QIQLVQSGPELKKPGETVKISCKASGYTFTTYGMSWMKQAPGKGLKWMGWINTYSGVPAYADDFKGRFAFSLDTSASTAYLQINNLKNEDTATYFCARSGYPWSPHSYSTDYWGQGISVTVSS VL: DVLLTQTPLSLPVSLGDQASISCKSSQSIVHSNGNTYLEWYLQKPGQSPKRLIYKVSNRFSGVPDRFSGSGSGTDFTLKISRVEAEDLGVYYCFQGSHVPWTFGGGTKLEIK | 0.29 | 1.02 | 1.25 | 0.59 | –
17 | 69-D5G10, IgG4, Kappa (antibody, V domains shown) VH: EVKLEESGGGLVQPGGSMKLSCVVSGLTFSNHWMNWVRQSPEKGLEWVAQIQLKSDNYATRFAESVKGRFTISRDDSKSDVYLQMNNLRTEDTGIYYCTTGTDYWGQGTTLTVSS VL: not shown | – | – | – | – | EC50 of Phagocytosis assay, IgG4, Kappa; HEK293-CD24 (human CD24 on cells): 0.37 µg/mL; EC50 of Phagocytosis assay, IgG4, Kappa; MCF-7 (human CD24 on cells): 1.02 µg/mL; EC50 of Phagocytosis assay, IgG4, Kappa; NALM6 (human CD24 on cells): 0.55 µg/mL; EC50 of Phagocytosis assay, IgG4, Kappa; OVCAR3 (human CD24 on cells): 0.51 µg/mL
18 | 69-D5G10, IgG1, Kappa (antibody, V domains shown) VH: EVKLEESGGGLVQPGGSMKLSCVVSGLTFSNHWMNWVRQSPEKGLEWVAQIQLKSDNYATRFAESVKGRFTISRDDSKSDVYLQMNNLRTEDTGIYYCTTGTDYWGQGTTLTVSS VL: not shown | 0.22 | 0.42 | 0.43 | 8.44 | –
19 | 59-G9D7, IgG1, Kappa (antibody, V domains shown) VH: QVQLQQPGADLVKPGASVKLSCKASGYTVTTYWMHWVRQRPGRGLEWIGRIDPNSGETKYSEKFKNKATLTVDRPSSTAYMQLSSLTFEDSAVYFCAIYYYLNNFLFDYWGQGTTLTVSS VL: ENVLTQSPAIMSASPGEKVTMTCRASSSVSSSYLHWYQKKSGASPKLWIYSTSNLASGVPARFSGSGSGTSYSLTISSVEAEDAATYYCQQYSGYPLTFGAGTKLELK | 4.76 | 2.05 | 7.9 | 0.97 | –
20 | 62-F7E9, IgG1, Kappa (antibody, V domains shown) VH: QVQLQQPGAELVKPGASVKLSCKASGYTSTSYWLHWVKQRPGRGLEWIGRIDPNSGETKFNEKFKSQATLTVDKPSSTAYMQLNSLTSEDSAVYYCALYYYGSILFDYWGQGTTLTVSS VL: ENVLTQSPAIMSASPGEKVTMTCRTSSIISSGFLHWYQQKSGASPKLWIYSTSNLASGVPARFSGSGSGTSYSLTISSVEAEDAATYYCQQYSGHPLTFGAGTKLELK | 5.15 | 2.08 | 8.62 | 1.63 | –
